# Experimental data as given in patent US20230190870A1, “Method for Treating Lysosomal Storage Diseases with Histatin Peptides” (THE BOARD OF TRUSTEES OF THE UNIVERSITY OF ILLINOIS, priority 2020, published 2023).
# Square brackets hold non-standard residues; d marks the D form. Ends that are not written are not given here. Peptide text beside a SMILES is read from it. pS = N[C@@H](COP(=O)(O)O)C(=O)O
# T1: Synthetic TMEM97 (144-176) peptide
# T1 construct: Synthetic peptide; also called (predicted) cytoplasmic segment
# T1 peptide: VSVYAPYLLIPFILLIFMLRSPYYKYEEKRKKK
# T2: Synthetic TMEM97 (108-176) peptide
# T2 construct: Synthetic peptide; also called full C-terminal synthetic TMEM97
# T2 peptide: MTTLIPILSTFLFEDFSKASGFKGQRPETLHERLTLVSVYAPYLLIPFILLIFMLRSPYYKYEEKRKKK
# B1: MTTLIPILSTFLFEDFSKASGFKGQRPETLHERLTLVSVYAPYLLIPFILLIFMLRSPYYKYEEKRKKK (peptide)
# chain: T2 peptide
# Columns and labels:
# [1] = test system: HCE cells; assay: Immunofluorescence imaging of internalization and localization; format: cell-based, human; details: 24 hours after exposure
# Description: Immunofluorescence Imaging. HCE cells were seeded on glass coverslips (Fisher Scientific Co.; Pittsburgh, Pa.) within a 6-well plate at 3×10^5 (cells/well) seeding density. […] HCE cells were then fixed in 3.7% paraformaldehyde, permeabilized with phosphate-buffered saline (PBS) containing 0.2% TRITON™ X-100 for 5 minutes, and washed three times for 5 minutes each time in PBS. For blocking, cells were and incubated at room temperature for 30 minutes with 5% bovine serum albumin (BSA) and 5% normal goat serum in PBS. For the Endoplasmic Reticulum (ER) staining, a Cytopainter ER staining kit (Abcam; Cambridge, Mass.) was used, following the manufacturer's instructions. After washing with 1×Assay buffer, cells were incubated with Green Detection Reagent to cover the monolayer of cells. For the detection of Hst1 and TMEM97, mouse anti-Hst1 antibody (Abcam; Cambridge, Mass.), rabbit primary antibody against Hst1 (Mybiosource; San Diego, Calif.), and rabbit anti-TMEM97 antibody (Novus Bio.; Littleton, Colo.) were used. Cells were incubated overnight at 4° C. with primary antibodies, washed three times for 5 minutes each time in PBS before incubation with secondary antibodies for 30 minutes. Cells were then counterstained with 1 μg/mL 4′,6-diamidino-2-phenylindole (DAPI) solution in PBS for 3 minutes, then washed three times with PBS containing 0.05% TRITON™ X-100 for 5 minutes each time, twice with PBS for 5 minutes each time, and once with distilled water for 10 seconds. The cells were mounted in Fluoro gel with Tris buffer (Electron Microscopy Sciences; Hatfield, Pa.) and observed under a confocal microscope (Zeiss LSM 710 Confocal Microscope; Oberkochen, Germany) using a 40×objective. Fluorescent dye sold under the tradename ALEXA FLUOR® 488 NHS Ester (Molecular Probes; Carlsbad, Calif.) was used for making Alexa-488 coupled synthetic Hst1.
# Transfection/Knock-Down of TMEM97. Sub-confluent monolayers of HCE cells in grown in 35-mm six-well plates were transfected with reaction mixtures composed of 100 pmol of small interfering RNA (siRNA) to TMEM97 (Santa Cruz Biotechnology; Dallas, Tex.) for 48 hours and 5 μL of transfection reagent sold under the tradename LIPOFECTAMINE® 2000 (Invitrogen; Carlsbad, Calif.) in culture medium sold under the tradename OPTI-MEMO media (Gibco Life Technologies; Grand Island, N.Y.). Complexes were incubated for 20 minutes at 24° C. and then added to cells at 37° C. Incubation was continued for 24 to 48 hours at 37° C. in 5% CO2. Knock-down (KD) of TMEM97 was confirmed by western blot analysis using a rabbit anti-TMEM97 antibody (Novus Bio.; Littleton, Colo.). […]
# [2] = target: T3, Synthetic TMEM97 (144-176) (Homo sapiens, UniProt Q5BJF2); assay: Surface plasmon resonance, immobilized synthetic TMEM97 (144-176); format: binding; details: SPR
# T3 construct: made in house; host or cells: chemical solid-phase synthesis (Fmoc, Wang resin)
# Description: (§1) Surface Plasmon Resonance (SPR). Recombinant full-length TMEM97 (also called MAC30, from HEK293 cells) and GST-TMEM97 (108-176, recombinant GST-C terminal from wheat germ) proteins were purchased from OriGene (Rockville, Md.) and Abnova (Taipei City, Taiwan), respectively. Three peptides, TMEM97 (108-176), TMEM97 (108-143) and TMEM97 (144-176), were synthesized. All proteins and peptides were initially prepared in HBS buffer containing 10 mM HEPES, pH 7.4, 150 mM NaCl, and 0.05% surfactant P20. The CM5 sensor surface was first activated by 1-ethyl-3-(3-dimethylaminopropyl) carbodiimide hydrochloride (EDC)/N-hydroxy succinimide (NHS) mixture using a Biacore T200 or Biacore 8K instrument (GE Healthcare). […] Flow channels 1 and 3 were used as references.
# (§2) The three synthesized peptides were diluted to 50 μg/mL in 10 mM sodium acetate at pH 4.0 and immobilized to flow channels 2, 3 and 4, respectively, on another sensor chip. The unmodified surfaces on a flow channel 1 were used as a reference control. Histatin solutions with a series of increasing concentrations (0.78-25 μM at 2-fold dilution) were applied to all four channels at a 30 μL/minute flow rate at 25° C. The data were double-referenced with reference channel and zero concentration responses, and reference subtracted sensorgrams were fitted with 1 to 1 Langmuir kinetic model using a Biacore T200 evaluation software V3.0 or Insight evaluation software. The equilibrium dissociation constants ([…]) were determined from two rate constants (KD=kd/ka).
# (§3) To determine more precisely which segment of TMEM97 is necessary for binding of Hst1, multiple synthetic fragments of TMEM97 were generated (Table 6) and binding to Hst1 was tested using SPR. […] Smaller fragments of the C-terminal of TMEM97 were then constructed to represent the (predicted) luminal (108-143) and cytoplasmic (144-176) exposed segments of the C-terminus of TMEM97 based on modeling experiments previously described. […] SPR results for Hst1 were confirmed using ITC as an orthogonal analytical method.
# (§4) To determine the region(s) of Hst1 that mediate binding to TMEM97, SPR testing was performed with various Hst1 fragments and either recombinant TMEM97 (GST-tagged, wheat-germ derived, C-terminal fragment TMEM97 (108-176)) or synthesized TMEM97 (TMEM97 (108-176), TMEM97 (108-143) and TMEM97 (144-176)).
# [3] = target: T4, Synthetic TMEM97 (108-176) (Homo sapiens, UniProt Q5BJF2); assay: Surface plasmon resonance, immobilized synthetic TMEM97 (108-176); format: binding; details: SPR
# T4 construct: Three peptides, TMEM97 (108-176), TMEM97 (108-143) and TMEM97 (144-176), were synthesized; made in house; host or cells: chemical solid-phase synthesis (Fmoc, Wang resin)
# Description: as §1, §2, §3, §4
# [4] = target: T5, GST-TMEM97 (108-176) (Homo sapiens, UniProt Q5BJF2); assay: Surface plasmon resonance, immobilized GST-TMEM97 (108-176); format: binding; details: SPR
# T5 construct: GST-TMEM97 (108-176, recombinant GST-C terminal from wheat germ); purchased Abnova (Taipei City, Taiwan); host or cells: wheat germ (cell-free)
# Description: as §1, §2, §4
# [5] = target: T6, Synthetic TMEM97 (108-143) (Homo sapiens, UniProt Q5BJF2); assay: Surface plasmon resonance, immobilized synthetic TMEM97 (108-143); format: binding; details: SPR
# T6 construct: made in house; host or cells: chemical solid-phase synthesis (Fmoc, Wang resin)
# Description: as §1, §2, §3, §4
# [6] = target: T7, full-length recombinant TMEM97 (HEK293 cells) (Homo sapiens, UniProt Q5BJF2); assay: Surface plasmon resonance, immobilized full-length TMEM97; format: binding; details: SPR
# T7 construct: Recombinant full-length TMEM97 (also called MAC30, from HEK293 cells); purchased OriGene (Rockville, Md.); host or cells: HEK293 cells
# Description: The three synthesized peptides were diluted to 50 μg/mL in 10 mM sodium acetate at pH 4.0 and immobilized to flow channels 2, 3 and 4, respectively, on another sensor chip. The unmodified surfaces on a flow channel 1 were used as a reference control. […] The data were double-referenced with reference channel and zero concentration responses, and reference subtracted sensorgrams were fitted with 1 to 1 Langmuir kinetic model using a Biacore T200 evaluation software V3.0 or Insight evaluation software. The equilibrium dissociation constants (K&) were determined from two rate constants (KD=kd/ka).
# [7] = target: T1, Synthetic TMEM97 (144-176) peptide; assay: SPR
# [8] = target: T2, Synthetic TMEM97 (108-176) peptide; assay: SPR
# [9] = Circular dichroism secondary structure analysis (DichroWeb); format: physicochemical
# Description: Circular Dichroism (CD). CD analysis was performed on a Jasco 815 CD spectrometer at room temperature. TMEM97 (108-176) and Hst1 full-length peptides were prepared as 10 mM stock in 25% DMSO and water, respectively, and diluted to 0.15 mg/mL final concentration in 10 mM […] buffer. A total of 400 μL of each sample was added into a 1 mm quartz sample cell, and CD spectra were recorded from 260 nm to 190 nm wavelength. Data points were measure in 0.5 nm wavelength step at a scanning speed of 100 nm/minute. A total of five spectra were acquired for each sample and averaged. […] buffer without peptide was used as a control curve, which was subsequently subtracted from the CD spectra of peptide samples. The resulting buffer control subtracted CD intensity row data in millidegrees were submitted to DichroWeb and fitted with multiple embedded models and converted to mean residue ellipticity.
# Subsequently, the hypothesis that interaction between Hst1 and TMEM97 could affect the structure of each protein was tested. Also, the secondary structure of Hst1 and TMEM97 was tested in solution using CD measurements. It was noted that Hst1 alone is mostly disordered (over 50%) with some degree of β-strand, while TMEM97 (108-176) contains some α-helical and β-strand regions with ˜34% disordered regions. According to CD spectra comparison, there seemed to be more secondary structures formed upon Hst1 binding to TMEM97 (108-176).
# [10] = target: T8, GST-TMEM97 (108-176), recombinant from wheat germ (Abnova) (UniProt Q5BJF2 108-176); assay: SPR
# T8 construct: not shown: GST tag
# [11] = CD, fraction of secondary structure
# T7 sequence (Q5BJF2 whole entry): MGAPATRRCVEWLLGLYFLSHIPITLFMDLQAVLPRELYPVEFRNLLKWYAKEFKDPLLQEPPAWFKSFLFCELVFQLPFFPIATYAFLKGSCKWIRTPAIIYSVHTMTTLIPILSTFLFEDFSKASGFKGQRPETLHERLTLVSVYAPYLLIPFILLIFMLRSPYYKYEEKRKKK
molecule,measurement,setting,value
"fluorescent dye-coupled synthetic Hst1: synthetic Hst1 coupled with ALEXA FLUOR 488 NHS Ester (D[pS]HEKRHHGYRRKFHEKHHSHREFPFYGDYGSNYLYDN; also: coupled with Alexa Fluor 488 NHS ester, site not given here; UniProt P15515 20-57, looked up)",internalization into cells,[1],internalized into HCE cells
N=C(N)NCCC[C@H](NC(=O)[C@H](Cc1ccc(O)cc1)NC(=O)CNC(=O)[C@H](Cc1c[nH]cn1)NC(=O)[C@H](Cc1c[nH]cn1)NC(=O)[C@H](CCCNC(=N)N)NC(=O)[C@H](CCCCN)NC(=O)[C@H](CCC(=O)O)NC(=O)[C@H](Cc1c[nH]cn1)NC(=O)[C@H](COP(=O)(O)O)NC(=O)[C@@H](N)CC(=O)O)C(=O)N[C@@H](CCCNC(=N)N)C(=O)N[C@@H](CCCCN)C(=O)N[C@@H](Cc1ccccc1)C(=O)N[C@@H](Cc1c[nH]cn1)C(=O)N[C@@H](CCC(=O)O)C(=O)N[C@@H](CCCCN)C(=O)N[C@@H](Cc1c[nH]cn1)C(=O)N[C@@H](Cc1c[nH]cn1)C(=O)O [Hst1(1-19)] (H-D[pS]HEKRHHGYRRKFHEKHH-OH),% Rmax,[2],(% Rmax = 16%)
same,% Rmax,[3],(% Rmax = 19%)
same,% Rmax,[4],(% Rmax = 32%)
N=C(N)NCCC[C@H](NC(=O)[C@H](Cc1ccc(O)cc1)NC(=O)CNC(=O)[C@H](Cc1c[nH]cn1)NC(=O)[C@H](Cc1c[nH]cn1)NC(=O)[C@H](CCCNC(=N)N)NC(=O)[C@H](CCCCN)NC(=O)[C@H](CCC(=O)O)NC(=O)[C@H](Cc1c[nH]cn1)NC(=O)[C@H](COP(=O)(O)O)NC(=O)[C@@H](N)CC(=O)O)C(=O)N[C@@H](CCCNC(=N)N)C(=O)N[C@@H](CCCCN)C(=O)N[C@@H](Cc1ccccc1)C(=O)N[C@@H](Cc1c[nH]cn1)C(=O)N[C@@H](CCC(=O)O)C(=O)N[C@@H](CCCCN)C(=O)N[C@@H](Cc1c[nH]cn1)C(=O)N[C@@H](Cc1c[nH]cn1)C(=O)N[C@@H](CO)C(=O)N[C@@H](Cc1c[nH]cn1)C(=O)N[C@@H](CCCNC(=N)N)C(=O)N[C@@H](CCC(=O)O)C(=O)N[C@@H](Cc1ccccc1)C(=O)N1CCC[C@H]1C(=O)N[C@@H](Cc1ccccc1)C(=O)O [Hst1(1-26)] (H-D[pS]HEKRHHGYRRKFHEKHHSHREFPF-OH),% Rmax,[2],(% Rmax = 4%)
same,% Rmax,[3],(% Rmax = 8%)
same,% Rmax,[4],(% Rmax = 24%)
same,KD / binding,[5],No binding
"Hst1(20-32): Hst1 fragment, residues 20-32 (SHREFPFYGDYGS)",KD,[2],No binding
HYHKFHRYYDPGSNLYKEHNHGFHHGYKDEFRREpSRDS (HYHKFHRYYDPGSNLYKEHNHGFHHGYKDEFRRE[pS]RDS) [reference compound],% Rmax,[6],8%
same,KD,"[6]; 25° C., 1 to 1 Langmuir kinetic model",No binding
same,% Rmax,[4],5%
same,KD,[4],No binding
"Hst1(15-38): Hst1 fragment, residues 15-38 (HEKHHSHREFPFYGDYGSNYLYDN)",KD,[2],No binding
same,KD,[3],No binding
same,KD,[4],No binding
"Hst1(1-14): Hst1 fragment, residues 1-14 (DSHEKRHHGYRRKF)",KD,[2],No binding
same,KD,[3],No binding
same,KD / binding,[5],No binding
SHREFPFYGDYGS (Fragment of Hst1) [Hst1(20-32)],binding result,[7],no binding
HEKHHSHREFPFYGDYGSNYLYDN (Fragment of Hst1) [Hst1(15-38)],binding result,[7],no binding
same,binding result,[8],no binding
B1,disordered regions,[9]; CD in solution,~34%
same,Helix,[9]; [11],0.14
same,Strand,[9]; [11],0.31
same,Turns,[9]; [11],0.21
same,Unordered,[9]; [11],0.34
DSHEKRHHGYRRKFHEKHH (not fully specified (residue 2); ends and bridges not checked) [Hst1(1-19)],Kd,[7],8.8 µM
same,Kd,[8],12.7 µM
same,Kd,[10],3.6 µM
